{
  "source": "paper PMC9528908",
  "origin": "cited, not measured here",
  "key": {"Glu66": {"molecular_target": "Glu66 (UniProt position 148, FTKKMEENAKK)", "assay": "stability"}, "Asp66": {"molecular_target": "Asp66 (UniProt position 148, FTKKMDENAKK)", "assay": "stability"}},
  "data": [
    {"substance": "Staphylococcal nuclease (SNase) V66E variant (Staphylococcus aureus; V66E)", "values": [
      {"measurement": "pKa", "setting": "Glu66", "value": "8.73–9.28"}
    ]},
    {"substance": "Staphylococcal nuclease (SNase) V66D variant (Staphylococcus aureus; V66D)", "values": [
      {"measurement": "pKa", "setting": "Asp66", "value": "8.45–9.03"}
    ]}
  ]
}
